Test results taken from patent US20260000781A1, “FC CONJUGATES INCLUDING AN INHIBITOR OF CD73 AND USES THEREOF” (Cidara Therapeutics, Inc., priority 2022, published 2026).
Read-outs that look alike come from different tables or passages of the source.

Experiments:
[1] = molecular target: T1, human CD73 expressed on cells (human) (UniProt P21589); assay: flow cytometry, MDA-MB-231 cells, anti-human Fc detection, gMFI; with 10 µM AMP
T1 sequence (looked up): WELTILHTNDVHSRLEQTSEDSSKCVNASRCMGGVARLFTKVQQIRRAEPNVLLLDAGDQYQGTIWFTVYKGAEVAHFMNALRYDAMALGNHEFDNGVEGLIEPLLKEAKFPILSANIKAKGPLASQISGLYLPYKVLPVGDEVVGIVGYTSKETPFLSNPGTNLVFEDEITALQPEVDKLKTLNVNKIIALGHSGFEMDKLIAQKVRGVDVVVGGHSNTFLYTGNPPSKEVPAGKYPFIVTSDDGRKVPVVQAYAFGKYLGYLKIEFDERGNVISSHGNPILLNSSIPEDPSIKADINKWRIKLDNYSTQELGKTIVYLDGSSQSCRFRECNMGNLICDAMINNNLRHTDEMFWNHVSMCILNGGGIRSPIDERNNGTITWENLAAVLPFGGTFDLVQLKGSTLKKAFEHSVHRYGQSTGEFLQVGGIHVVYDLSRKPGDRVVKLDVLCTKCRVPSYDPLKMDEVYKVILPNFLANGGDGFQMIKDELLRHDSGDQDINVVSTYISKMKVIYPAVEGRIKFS

[2] = molecular target: T1, human CD73 expressed on cells (human); assay: cell-based or functional assay
[3] = molecular target: T1, human CD73 expressed on cells (human); assay: flow cytometry, MDA-MB-231 cells, anti-human Fc detection, gMFI; with 1 nM AB680
[4] = molecular target: T1, human CD73 expressed on cells (human); assay: flow cytometry, MDA-MB-231 cells, anti-human Fc detection, gMFI; 0 µM AMP
[5] = molecular target: T1, human CD73 expressed on cells (human); assay: flow cytometry, MDA-MB-231 cells, PE anti-human Fc detection, % labelled cells
[6] = molecular target: T1, human CD73 expressed on cells (human); assay: flow cytometry, MDA-MB-231 cells, anti-human Fc detection, gMFI; with 100 nM AB680
[7] = molecular target: T1, human CD73 expressed on cells (human); assay: flow cytometry, MDA-MB-231 cells, anti-human Fc detection, gMFI; with 1,000 µM AMP
[8] = molecular target: T1, human CD73 expressed on cells (human); assay: flow cytometry, MDA-MB-231 cells, anti-human Fc detection, gMFI
[9] = molecular target: T1, human CD73 expressed on cells (human); assay: flow cytometry, MDA-MB-231 cells, anti-human Fc detection, gMFI; with 100 µM AMP
[10] = molecular target: T1, human CD73 expressed on cells (human); assay: flow cytometry, MDA-MB-231 cells, anti-human Fc detection, gMFI; with 100 nM AB680; remark: listed apart in the source
[11] = molecular target: T1, human CD73 expressed on cells (human); assay: flow cytometry, MDA-MB-231 cells, anti-human Fc detection, gMFI; with 1 nM AB680; remark: listed apart in the source
[12] = molecular target: T1, human CD73 expressed on cells (human); assay: flow cytometry, MDA-MB-231 cells, anti-human Fc detection, gMFI; with 10 nM AB680
[13] = molecular target: T1, human CD73 expressed on cells (human); assay: flow cytometry, MDA-MB-231 cells, anti-human Fc detection, gMFI; with 100 µM AMP; remark: listed apart in the source
[14] = molecular target: T1, human CD73 expressed on cells (human); assay: flow cytometry, MDA-MB-231 cells, anti-human Fc detection, gMFI; with 10 nM AB680; remark: listed apart in the source
[15] = molecular target: T1, human CD73 expressed on cells (human); assay: flow cytometry, MDA-MB-231 cells, anti-human Fc detection, gMFI; with 10 µM AMP; remark: listed apart in the source
[16] = molecular target: T1, human CD73 expressed on cells (human); assay: flow cytometry, MDA-MB-231 cells, anti-human Fc detection, gMFI; no AB680 (column headed No AMP)
[17] = molecular target: T1, human CD73 expressed on cells (human); assay: flow cytometry, MDA-MB-231 cells, anti-human Fc detection, gMFI; 0 nM AB680
[18] = molecular target: T1, human CD73 expressed on cells (human); assay: cell-based or functional assay; remark: listed apart in the source
[19] = molecular target: T2, recombinant human CD73 enzyme (human) (UniProt P21589); assay: cell-based or functional assay
T2 sequence (looked up): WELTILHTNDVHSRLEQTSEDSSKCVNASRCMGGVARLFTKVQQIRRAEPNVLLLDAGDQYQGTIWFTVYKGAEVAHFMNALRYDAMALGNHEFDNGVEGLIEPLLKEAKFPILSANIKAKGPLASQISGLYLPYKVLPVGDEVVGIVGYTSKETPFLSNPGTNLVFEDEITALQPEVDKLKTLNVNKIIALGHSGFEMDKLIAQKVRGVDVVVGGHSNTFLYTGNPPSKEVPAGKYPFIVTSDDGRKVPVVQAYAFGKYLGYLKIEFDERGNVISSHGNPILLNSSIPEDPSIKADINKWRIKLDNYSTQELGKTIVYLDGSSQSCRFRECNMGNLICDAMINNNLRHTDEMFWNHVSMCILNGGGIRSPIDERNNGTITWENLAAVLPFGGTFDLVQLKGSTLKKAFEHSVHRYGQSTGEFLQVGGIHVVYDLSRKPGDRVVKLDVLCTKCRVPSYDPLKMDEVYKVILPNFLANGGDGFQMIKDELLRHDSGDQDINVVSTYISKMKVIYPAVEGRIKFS

[20] = molecular target: T1, human CD73 expressed on cells (human); assay: cell-based or functional assay; remark: listed apart in the source
[21] = molecular target: T1, human CD73 expressed on cells (human); assay: flow cytometry, MDA-MB-231 cells, anti-human Fc detection, gMFI; no AMP
[22] = molecular target: T1, human CD73 expressed on cells (human); assay: flow cytometry, MDA-MB-231 cells, anti-human Fc detection, gMFI; with 1,000 µM AMP; remark: listed apart in the source

B1: Mupadolimab (antibody, INN chains, looked up, V domains shown)
VH: QVQLVQSGAEVEKPGASVKVSCKASGYTFTSYWITWVRQAPGQGLEWMGDIYPGSGNTNYNEKFKTRVTITADKSTSTAYMELSSLRSEDTAVYYCAKEGGLTTEDYALDYWGQGTLVTVSS
VL: EIVLTQSPATLSLSPGERATLSCRASKNVSTSGYSYMHWYQQKPGQAPRLLIYLASNLESGIPPRFSGSGYGTDFTLTINNIESEDAAYYFCQHSRELPFTFGQGTKVEIK
B1 was tested, and the IC50 [1] was 0.048 nM, the % CD73 receptor internalization, MDA-MB-231 [2] was over 60% and the IC50 [3] was 0.88 nM. The IC50 [4] was 0.1 nM, the EC50 [5] was 1.25 nM and the IC50 [6] was 8.48 nM. The IC50 [7] was 0.14 nM, the fold reduction of binding at high AMP concentration [8] was 2 fold and the IC50 [9] was 0.12 nM. The IC50 [10] was 4.19 nM, the IC50 [11] was 1.39 nM and the IC50 [12] was 2.59 nM. The IC50 [13] was 0.16 nM, the IC50 [14] was 1.54 nM and the IC50 [15] was 0.12 nM. For the same binder, the IC50 [16] was 0.09 nM, the IC50 [17] was 0.1 nM and the Cell internalization EC50 (nM), Fab-ZAP saporin assay, MDA-MB-231 [18] was 0.06 nM. The Cell free CD73 inhibition IC50 [19] was over 100 nM, the % CD73 receptor internalization, MDA-MB-231 [20] was over 70% and the CD73 inhibition, human PBMCs, 3 h IC50 [nM] [20] was 2.85 nM. The CD73 inhibition, human PBMCs, 3 h median IC50 [nM] [20] was 9.27 nM, the CD73 inhibition, human PBMCs, 24 h IC50 [nM] [20] was 44.2 nM and the CD73 inhibition, human PBMCs, 24 h median IC50 [nM] [20] was 29.9 nM. For the same binder, the Cell internalization EC50 (nM), Fab-ZAP saporin assay, MDA-MB-231 [20] was 0.055 nM, the Cell-based CD73 inhibition IC50 (nM), MDA-MB-231 cells [20] was 3.82 nM and the PBMC activation (CD25+), 30 µM AMP EC50 [nM] [20] was 576 nM. The PBMC activation, CD4+CD25+ EC50 [nM] (median, n = 3) [20] was 28 nM, the PBMC activation, CD8+CD25+ EC50 [nM] [20] was 932 nM and the PBMC activation, CD8+CD25+ EC50 [nM] (median, n = 3) [20] was 84 nM. The PBMC activation, CD8+Granzyme B+ EC50 [nM] (median, n = 3) [20] was 83 nM, the PBMC activation, CD8+granzyme B+ EC50 [nM] [20] was 63.1 nM and the cell-based CD73 enzyme inhibition IC50 (MDA-MB-231 cells) [20] was 1.16 nM. For the same binder, the inhibition of adenosine production (AMP conversion by CellTiter-Glo), human PBMCs, EC50 [nM] [20] was 10 nM, the IC50 [21] was 0.025 nM and the IC50 [22] was 0.2 nM.
